Reference: US20190031771A1 (University of Pennsylvania, published 2019)
Changes are numbered by the printed parent chain.

Target: T1, human ADAMTS13 (human, UniProt Q76LX8 75-1427)
T1 construct: ELISA: full-length recombinant ADAMTS13 coated on plates (Technoclone); Activity assays: endogenous ADAMTS13 of normal human plasma; also called full-length human recombinant ADAMTS13; VWF-cleaving protease
T1 sequence (looked up): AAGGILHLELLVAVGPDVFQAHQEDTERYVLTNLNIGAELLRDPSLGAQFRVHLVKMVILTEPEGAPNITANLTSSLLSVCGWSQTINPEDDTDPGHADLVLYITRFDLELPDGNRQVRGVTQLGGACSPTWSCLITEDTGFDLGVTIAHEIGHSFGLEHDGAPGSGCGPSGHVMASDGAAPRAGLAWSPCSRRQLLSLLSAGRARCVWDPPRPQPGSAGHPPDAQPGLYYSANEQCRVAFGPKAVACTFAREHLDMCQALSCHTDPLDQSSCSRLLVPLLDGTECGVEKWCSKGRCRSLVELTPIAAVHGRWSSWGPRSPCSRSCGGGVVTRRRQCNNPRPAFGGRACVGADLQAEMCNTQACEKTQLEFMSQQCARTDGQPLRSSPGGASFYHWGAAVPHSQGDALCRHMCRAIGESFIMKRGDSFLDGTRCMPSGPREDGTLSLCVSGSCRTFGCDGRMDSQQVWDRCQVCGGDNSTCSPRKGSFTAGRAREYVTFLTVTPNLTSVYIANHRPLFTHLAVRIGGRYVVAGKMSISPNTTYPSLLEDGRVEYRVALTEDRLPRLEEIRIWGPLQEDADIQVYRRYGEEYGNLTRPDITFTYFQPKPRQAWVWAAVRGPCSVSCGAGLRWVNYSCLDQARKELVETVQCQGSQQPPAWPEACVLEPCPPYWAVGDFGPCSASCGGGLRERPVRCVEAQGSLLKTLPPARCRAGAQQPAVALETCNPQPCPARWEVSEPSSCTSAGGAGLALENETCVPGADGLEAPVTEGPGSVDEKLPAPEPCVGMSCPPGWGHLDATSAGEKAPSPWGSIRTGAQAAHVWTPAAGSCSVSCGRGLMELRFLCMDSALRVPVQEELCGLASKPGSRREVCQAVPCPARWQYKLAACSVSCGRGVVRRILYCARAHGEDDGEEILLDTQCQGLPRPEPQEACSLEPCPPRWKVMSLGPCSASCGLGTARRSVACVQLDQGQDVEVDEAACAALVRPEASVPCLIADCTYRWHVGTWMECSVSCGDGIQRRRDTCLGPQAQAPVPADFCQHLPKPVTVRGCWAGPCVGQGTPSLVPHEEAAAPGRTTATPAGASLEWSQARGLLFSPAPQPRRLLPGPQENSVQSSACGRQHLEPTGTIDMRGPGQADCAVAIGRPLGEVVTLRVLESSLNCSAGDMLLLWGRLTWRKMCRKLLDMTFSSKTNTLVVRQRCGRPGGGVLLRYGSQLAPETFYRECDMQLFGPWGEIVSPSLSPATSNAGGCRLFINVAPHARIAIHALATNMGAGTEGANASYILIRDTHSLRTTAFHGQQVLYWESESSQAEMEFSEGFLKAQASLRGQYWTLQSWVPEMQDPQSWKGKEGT
Experiment: phage ELISA on ADAMTS13-coated plates (positive: >10-fold absorbance above background)

B1: scFv 1-415 (scFv, V domains shown)
VH: QVQLQESGGGVVQPGRSLRLSCAASGFTFRNYAMHWVRQAPGKGLEWVAVISYDGGKEYYADSVKGRFTISRDNSKNTLYLQMNSLRAEDTAVYYCARDTFSYYDFWRAFDYWGQGTLVTVSS
VL: ELELTQPPSVSGSPGQSITISCTGTSSDVGGYNYVSWYQQHPGKAPKLMIYEVSNRPSGVSNRFSGSKSGNTASLTISGLQAEDEADYYCSSYTSSSTVVFGGGTKLTVL
B1: binds.

B2: scFv 1-437 (scFv, V domains shown)
VH: QVQLVQSGGGLVKPGGSLRLSCAASGFIFSNYIMNWVRQAPGKGLEWVSSISSSGSYIYYADSVKGRFTISRDNAKNSMYLQMNSLRGEDTAVYYCAAAYDFWSGYYFWGQGTTVTVSS
VL: B1 VL with E3A, S97T, T98P, V99Y, G103T, L107V
B2: binds.

B3: scFv 1-417 (scFv, V domains shown)
VH: QVQLVQSGTEVKKFGSSVKVSCKASGGSFSSYTISWVRQAPGQGLEWMGSFIPILERANYAQKFQGRVTFTADKTTSTAYMELGGLRSQDTAVYYCARDLGDFGDSWGQGTLVTVSS
VL: ELVLTQPPSVSVAPGKTARITCGGNNIGSKTVHWYQQKPGQAPVVVVSDDSERPSGIPERFSGSNSGNTATLTISRVEGGDEADYYCQVWDSSNDQVVFGGGTELTVL
B3: binds.

B4: scFv 1-410 (scFv, V domains shown)
VH: QVQLQESGGGVVQPGGSLRLSCAASGFTFDDYTMHWVRQAPGKGLEWVSLISWDGGSTYYADSVKGRFTISRDNSKNSLYLQMNSLRTEDTALYYCAKDNGYDILTDYLDSWGQGTLVTVSS
VL: ELQMTQSPSSLSASVGDRVTITCQASQDISNYLNWYQQKPGKAPKLLIYDASNLETGVPSRFSGSGSGTDFTFTISSLQPEDIATYYCQQYDNLPLTFGQGTRLEIK
B4: binds.

B5: scFv 1-423 (scFv, V domains shown)
VH: QVQLVQSGAEVKRPGSSVKVSCKASGGTFSSYTISWVRQAPGQGLEWMGSIIPVLDVTSYAQQFQGRVTITADKSTKTAYMDLSSLTFEDTALYFCSIGRYTYGHFDTWGQGTQVTVSS
VL: ELVLTQPPSVSVAPGKTARVTCGGGNIGDKAVHWYQQRPGQAPVLVVFGDSARPSGIPERFSGSNSGNTATLTISRVEVGDEADYYCQVWDSNSDHQVFGGGTKLTVL
B5: binds.

B6: scFv 1-451 (scFv, V domains shown)
VH: QVQLVQSGGGLVQPGRSLRLSCAASGFIFDDYAMHWVRQAPGKGLEWVSGISWNSGSIGYADSVKGRFTISRDNAKNSLYLQMNSLRAEDTALYYCAKDPNSLYRSGSFDYWGQGTLVTVSS
VL: not shown
B6: binds.

B7: scFv 1-440 (scFv, V domains shown)
VH: B6 VH with Q1E, V5L, Q6E
VL: ELQMTQSPSSLSASVGDRVTITCRASQSISSYLNWYQQKPGKAPKLLIYAASSLESGVPSRFSGSGSGTDFTLTISSLQPEDFASYYCQQSYSTPFTFGPGTKVDIK
B7: binds.

B8: scFv 1-432 (scFv, V domains shown)
VH: QVQLVQSGAEVKKPLSSVKVSCKASGGTFNMYDINWVRQAPGQGLEWMGGIVPILGVTNYAQNFQGRLTITADKSTSTAYMELSSLRSEDTAVYYCARGVAAGWNAFDVWGQGTMVTVSA
VL: ELVLTQPPSMSVVPGQTARITCGGDNIGSKSVHWYQQKPGQAPVLVVNDDTERPSGIPDRFSGSNSGNTATLVISRVGAGDEADYFCQVWDSRSDHQVFGGGTKLTVL
B8: binds.

B9: scFv 1-413 (scFv, V domains shown)
VH: QVQLVQSGSEVKKPGSSVKVSCKASGGTFSSHTLSWVRQAPGQGLEWMGEIIPILDRVKYSQNFQGRVTITADKSTNTTYMELSSVRSEDTAVYYCVSNGWSNFDFWGQGTLVTVSP
VL: ELELTQPPSVSVSPGQTARITCSGGALPKHYVYWYQQKPGQAPAVVIYKDTERPSGIPERFSGSTSGATVTLTISGVQADDDAVYFCQSVDSNDTSWIFGGGTKLTVL
B9: binds.

B10: scFv 1-418 (scFv, V domains shown)
VH: B9 VH with L34V, K59N, S61A, Q62E, E82D, V86L, V97T, P117S
VL: B9 VL with E3V, V32A, A68T
B10: binds.
